In patent US20120128661A1 (ALETHIA BIOTHERAPEUTICS, published 2012):
Several values for one entry are separate records, joined by “and”; a condition that tells them apart may be missing. Identical values can stand only once. Like-named read-outs stand apart in the source and are kept apart here.

Tests used:
[1] = biological target: T1, monomeric recombinant KAAG1 (human, UniProt Q9UBP8 1-84, limits assumed); experiment: SPR (Biacore); antibody captured on anti-human Fc, monomeric KAAG1 injected, 1:1 fit, average KD; chimeric light chain, humanized heavy chain (CH)
T1 construct: Analyte of the Biacore experiment
T1 sequence: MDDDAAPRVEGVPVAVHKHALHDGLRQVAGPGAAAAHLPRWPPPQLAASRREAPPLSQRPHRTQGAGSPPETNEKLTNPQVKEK
Experimental: (§1) More precise measurements were conducted using Surface Plasmon Resonance (SPR) in a Biacore instrument. Kinetic analysis was used to compare the affinity of the chimeric 3D3 with the h3D3 as well as with hybrid antibodies encompassing different permutations of the light and heavy chains (see FIG. 18B). Briefly, anti-human Fc was immobilized on the Biacore sensor chip and chimeric or h3D3 was captured on the chip. Different concentrations of monomeric recombinant KAAG1 were injected and the data were globally fitted to a simple 1:1 model to determine the kinetic parameters of the interaction.

[2] = biological target: T1, monomeric recombinant KAAG1; experiment: SPR (Biacore), antibody captured on anti-human Fc, monomeric KAAG1 injected, 1:1 model
Experimental: as §1

[3] = biological target: T1, monomeric recombinant KAAG1; experiment: SPR (Biacore); antibody captured on anti-human Fc, monomeric KAAG1 injected, 1:1 fit, average KD; humanized light and heavy chains (HH)
Experimental: as §1

Fc-0447 1-60 (human) = Fc-0447 1-60 (human) (UniProt Q9UBP8); experiment: ELISA, Fab plate on Fc-0447 1-60
[4] = biological target: T2, Fc-fused truncated mutant of KAAG1 spanning amino acids 1-35 (human); experiment: ELISA, Fab plate on Fc-0447 1-35
T2 construct: Made and purified like the full-length Fc-KAAG1; also called KAAG1 1-35
T2 chain: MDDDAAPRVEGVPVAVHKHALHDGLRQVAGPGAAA

[5] = biological target: T3, recombinant Fc-KAAG1 fusion protein (full-length human KAAG1 fused to human Fc, from pYD5-0447 in 293E cells) (human, UniProt Q9UBP8 1-84, biotinylated with NHS-biotin for the ELISA (sites not given)); experiment: ELISA, 1 ng Fab/well on Fc-KAAG1 [D00012 Figure 7C]
T3 construct: Order of parts follows the printed name Fc-KAAG1; also called recombinant KAAG1; not shown: its limits and the linker to KAAG
T3 sequence: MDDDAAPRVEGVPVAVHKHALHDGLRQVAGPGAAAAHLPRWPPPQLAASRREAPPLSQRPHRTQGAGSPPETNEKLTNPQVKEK
Experimental: (§2) The 96-well master plate of monoclonal preparations contained different concentrations of purified anti-KAAG1 Fabs in each well. A second stock master plate was prepared by diluting the Fabs to a final concentration of 10 μg/ml from which all subsequent dilutions were performed for ELISA measurements. To carry out the binding of Fc-KAAG1 to the monoclonal preparations, the Fc-KAAG1 was biotinylated with NHS-biotin (Pierce, Rockford, Ill.) and 10 ng/well was coated in a streptavidin 96-well plate. One nanogram of each Fab monoclonal preparation was added to each well and incubated at room temperature for 30 minutes. Bound antibody was detected with HRP-conjugated mouse anti-kappa light chain antibody in the presence of TMB liquid substrate (Sigma-Aldrich Canada Ltd., Oakville, ON) and readings were conducted at 450 nm in microtiter plate reader.

[6] = biological target: T3, recombinant Fc-KAAG1 fusion protein …; experiment: ELISA on recombinant Fc-KAAG1
Experimental: as §2
Expression of human IgG1s in 293E cells—The expression vectors prepared above that encoded the light and heavy chain immunoglobulins were expressed in 293E cells using the transient transfection system (Durocher et al., 2002). The methods used for co-transfecting the light and heavy chain expression vectors were described in Example 5. […] The ability of the chimeric anti-KAAG1 monoclonal antibodies to bind to recombinant Fc-KAAG1 was measured in the ELISA and compared with the original mouse Fabs. The method was described in Example 5. […]

[7] = biological target: T1, monomeric recombinant KAAG1; experiment: SPR (Biacore); antibody captured on anti-human Fc, monomeric KAAG1 injected, 1:1 fit, average KD; humanized light chain, chimeric heavy chain (HC)
Experimental: as §1

[8] = biological target: T1, monomeric recombinant KAAG1; experiment: SPR (Biacore); antibody captured on anti-human Fc, monomeric KAAG1 injected, 1:1 fit, average KD; chimeric 3D3 tabulated as m3D3 in FIG. 18B
Experimental: as §1

[9] = biological target: T3, recombinant Fc-KAAG1 fusion protein …; experiment: ELISA on recombinant Fc-KAAG1; remark: listed apart in the source
[10] = biological target: T1, monomeric recombinant KAAG1; experiment: SPR (Biacore); antibody captured on anti-human Fc, monomeric KAAG1 injected, 1:1 fit, average KD; chimeric light + chimeric heavy chain co-expressed, 'CC' of the permutation set
Experimental: as §1

Binder	Ka [2]	koff [2]	kon [2]	OD450 [5] [OD450]	other results
3D3 hybrid antibody: chimeric light chain expressed with the humanized heavy chain (antibody, human IgG1, V domains shown) VH: EVQLVQSGAEVKKPGASVKVSCKASGYIFTDYEIHWVRQAPGQGLEWMGVIDPETGNTAFNQKFKGRVTITADTSTSTAYMELSSLTSEDTAVYYCMGYSDYWGQGTLVTVSS VL: DIVMTQSPSSLAVSIGQKVTMNCKSSQSLLNSNFQKNFLAWYQQKPGQSPKLLIYFASTRESSIPDRFIGSGSGTDFTLTISSVQAEDLADYFCQQHYSTPLTFGAGTKLELKA	1.98e+09 M⁻¹	0.00111 s⁻¹	2.2e+06 M⁻¹ s⁻¹		Kd [1]: 505 pM
humanized 3D3 anti-KAAG1 antibody (human IgG1) (antibody, V domains shown, The residues before them (leader) are left out on that ground; also called h3D3; HH) VH: EVQLVQSGAEVKKPGASVKVSCKASGYIFTDYEIHWVRQAPGQGLEWMGVIDPETGNTAFNQKFKGRVTITADTSTSTAYMELSSLTSEDTAVYYCMGYSDYWGQGTLVTVSS VL: DIVMTQSPDSLAVSLGERATINCKSSQSLLNSNFQKNFLAWYQQKPGQPPKLLIYFASTRESSVPDRFSGSGSGTDFTLTISSLQAEDVAVYYCQQHYSTPLTFGQGTKLEIKR	2.28e+09 M⁻¹	0.00111 s⁻¹	2.53e+06 M⁻¹ s⁻¹		Kd [3]: 439 pM
anti-KAAG1 Fab of well E10 (plate from Omniclonal library #3) (Fab, V domains shown) VH: EVQLQQSGPELVKPGASVKISCKASGDTFTDYYMNWVKQSHGKSLEWIGDINPNYGGITYNQKFKGKATLTVDTSSSTAYMELRGLTSEDSAVYYCQAYYRNSDYWGQGTTLTVSS VL: DIVMTQAAPSVPVTPGESVSISCRSSKSLLHSNGNTYLYWFLQRPGQSPQLLIYRMSNLASGVPDRFSGSGSGTAFTLRISRVEAEDVGVYYCMQHLEYPYTFGGGTKLEIK				0.02	OD450 (Fc-0447 1-60 (human)): -0.02 OD450; OD450 [4]: 0.33 OD450
3D3 mouse anti-KAAG1 Fab (Fab, V domains shown, Recombinant mouse Fab made in E. coli; also called 3D3 Fab) VH: EVQLQQSVAELVRPGASVTLSCKASGYIFTDYEIHWVKQTPVHGLEWIGVIDPETGNTAFNQKFKGKATLTADISSSTAYMELSSLTSEDSAVYYCMGYSDYWGQGTTLTVSS VL: DIVMTQSPSSLAVSIGQKVTMNCKSSQSLLNSNFQKNFLAWYQQKPGQSPKLLIYFASTRESSIPDRFIGSGSGTDFTLTISSVQAEDLADYFCQQHYSTPLTFGAGTKLELK				1.21	OD450 (Fc-0447 1-60 (human)): 1.33 OD450; EC50 (read off the curve) [6]: ~0.5 µg/mL
G12 (Fab, V domains shown) VH: EVQLQQSVAELVRPGASVTVSCKASGYIFTDYEIHWVKQTPAHGLEWIGVIDPETGNTAFNQKFKGKATLTADISSSTAYMELSSLTSEDSAVYYCMGYSDYWGQGTTLTVSS VL: DIVMTQSPKFMSTSVGDRVSITCKASQDVGTAVAWYQQKPGQSPELLIYWTSTRHTGVPDRFSGSGSGTDFTLTISSVQAEDLADYFCQQHYSIPLTFGAGTKLELR				1.38	
3D3 hybrid antibody: humanized light chain expressed with the chimeric heavy chain (antibody, V domains shown, also called HC) VH: EVQLQQSVAELVRPGASVTLSCKASGYIFTDYEIHWVKQTPVHGLEWIGVIDPETGNTAFNQKFKGKATLTADISSSTAYMELSSLTSEDSAVYYCMGYSDYWGQGTTLTVSS VL: DIVMTQSPDSLAVSLGERATINCKSSQSLLNSNFQKNFLAWYQQKPGQPPKLLIYFASTRESSVPDRFSGSGSGTDFTLTISSLQAEDVAVYYCQQHYSTPLTFGQGTKLEIKR	3.24e+09 M⁻¹	0.00073 s⁻¹	2.36e+06 M⁻¹ s⁻¹		Kd [7]: 309 pM
3D3 mouse-human chimeric IgG1 anti-KAAG1 monoclonal antibody (antibody, V domains shown, Mouse variable regions on human IgG1 and kappa constant regions, made in 293E cells; In the Biacore experiment two KD values are told for this composition, under the labels m3D3 and CC; also called chimeric 3D3; m3D3) VH: EVQLQQSVAELVRPGASVTLSCKASGYIFTDYEIHWVKQTPVHGLEWIGVIDPETGNTAFNQKFKGKATLTADISSSTAYMELSSLTSEDSAVYYCMGYSDYWGQGTTLTVSS VL: DIVMTQSPSSLAVSIGQKVTMNCKSSQSLLNSNFQKNFLAWYQQKPGQSPKLLIYFASTRESSIPDRFIGSGSGTDFTLTISSVQAEDLADYFCQQHYSTPLTFGAGTKLELKA	4.5e+09 M⁻¹ and 2.71e+09 M⁻¹	0.00065 s⁻¹ and 0.00073 s⁻¹	2.91e+06 M⁻¹ s⁻¹ and 1.98e+06 M⁻¹ s⁻¹		Kd [8]: 235 pM; EC50 (read off the curve) [9]: ~0.4 µg/mL; Kd [10]: 271 pM; Kd [2]: 368 pM
3C4 mouse anti-KAAG1 Fab (Fab, V domains shown, Recombinant mouse Fab made in E. coli; also called 3C4 Fab) VH: EVQLQESGPDLVKPSQSLSLTCTVTGFSITSGYGWHWIRQFPGNKLEWMGYINYDGHNDYNPSLKSRISITQDTSKNQFFLQLNSVTTEDTATYYCASSYDGLFAYWGQGTLVTVSA VL: DIVMSQSPSSMYASLGERVTITCKASQDIHNFLNWFQQKPGKSPKTLIFRANRLVDGVPSRFSGSGSGQDYSLTISSLEFEDLGIYSCLQYDEIPLTFGAGTKLELR				0.25	OD450 (Fc-0447 1-60 (human)): 0.57 OD450
anti-KAAG1 Fab of well C2 (plate from Omniclonal library #3) (Fab, V domains shown) VH: DVQLQESGPDLVKPSQSLSLTCTVTGFSITSGYGWHWIRQFPGNKLEWMGYISFNGDSNYNPSLKSRISITRDTSKNQFFLQLNSVTSEDTATYYCASSYDGLFAYWGQGPLVTVSA VL: DIQMTQSPSSMYASLGERVTLTCKASQDIHNYLNWFQQKPGKSPKTLIHRANRLVAGVPSRFSGSGSGQDYSLTISSLEYEDLGIYYCLQYDAFPLTFGAGTKLELK				0.32	OD450 [4]: 1.97 OD450
anti-KAAG1 Fab of well D1 (plate from Omniclonal library #3) (Fab, V domains shown) VH: EVQLQESGPDLVKPSQSLSLTCTVTGFSITSGYGWHWIRQFPGDKLEWMGYISFNGDYNYNPSLKSRISITRDTSKNQFFLQLSSVTTEDTATYYCASSYDGLFAYWGQGTLVTVSA VL: DIKMTQSPSSMYASLGERVTITCKASQDIHTYLNWFQQKPGKSPETLIYRANRLVDGVPSRFSGSGSGQDYSLTISSLEYEDMGIYYCLQYDEFPLTFGAGTKLELK				0.15	OD450 [4]: 1.21 OD450
3G10 mouse anti-KAAG1 Fab (Fab, V domains shown, Recombinant mouse Fab made in E. coli; also called 3G10 Fab) VH: EIQLQQSGPELVKPGASVKISCKASGYTFTDNYMNWVKQSHGKSLEWIGDINPYYGTTTYNQKFKGKATLTVDKSSRTAYMELRGLTSEDSAVYYCARDDWFDYWGQGTLVTVSA VL: DVLMTQTPRSLSVSLGDQASISCRSSQSLLHSNGNTYLEWYLQKPGQPPKVLIYKVSNRFSGVPDRFSGSGSGTDFTLKISGVEAEDLGVYYCFQGSHVPLTFGAGTKLELK				2.78	
